# Measurements: patent US20260098059A1 (ENDOMET BIOSCIENCES, published 2026)
# Several values for one entry are separate records, joined by “and”; a condition that tells them apart may be missing. Equal entries are not always repeated. Where no end group is shown, it is not given here.
# T1: β-catenin (UniProt P35222 134-665, limits assumed, biotinylated in the SPR and plate assays)
# T1 sequence (looked up): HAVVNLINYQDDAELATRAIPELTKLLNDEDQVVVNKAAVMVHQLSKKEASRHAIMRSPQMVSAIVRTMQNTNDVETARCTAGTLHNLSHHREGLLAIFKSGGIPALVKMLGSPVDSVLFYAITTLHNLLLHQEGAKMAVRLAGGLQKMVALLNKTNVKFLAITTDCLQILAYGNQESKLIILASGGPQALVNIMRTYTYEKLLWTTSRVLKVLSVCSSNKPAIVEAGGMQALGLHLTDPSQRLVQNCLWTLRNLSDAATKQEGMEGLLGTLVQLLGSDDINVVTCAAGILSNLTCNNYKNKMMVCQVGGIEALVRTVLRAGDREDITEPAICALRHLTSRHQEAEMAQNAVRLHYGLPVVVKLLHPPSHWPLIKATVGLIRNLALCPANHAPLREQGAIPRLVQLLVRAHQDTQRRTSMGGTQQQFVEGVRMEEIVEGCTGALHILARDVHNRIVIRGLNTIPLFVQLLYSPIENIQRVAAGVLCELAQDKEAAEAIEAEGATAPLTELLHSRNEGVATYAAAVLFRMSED
# Target: T1, β-catenin
# Assay: cell-based or functional assay
row,Wnt Reporter EC50,Binder
1,> 30 µM,WFLISFW-NH2 [SEQ ID NO: 98]
2,> 7.5 µM and ≤ 15 µM,H-WFLITTW-OH [SEQ ID NO: 100]
3,> 7.5 µM and ≤ 15 µM,WFLISSW (HELM PEPTIDE1{W.F.L.I.S.[CCOC[C@H](N[*:1])C(=O)[*:2]].W}$$$$V2.0; SMILES CCOC[C@H](NC(=O)[C@H](CO)NC(=O)[C@@H](NC(=O)[C@H](CC(C)C)NC(=O)[C@H](Cc1ccccc1)NC(=O)[C@@H](N)Cc1c[nH]c2ccccc12)[C@@H](C)CC)C(=O)N[C@@H](Cc1c[nH]c2ccccc12)C(=O)O) [SEQ ID NO: 104]
4,> 22.5 µM and ≤ 30 µM,H-WFLISSW-OH [SEQ ID NO: 97]
5,> 7.5 µM and ≤ 15 µM,WFLISSW (HELM PEPTIDE1{W.F.L.I.S.[O=C([C@H](COCc1ccccc1)N[*:1])[*:2]].W}$$$$V2.0; SMILES CC[C@H](C)[C@H](NC(=O)[C@H](CC(C)C)NC(=O)[C@H](Cc1ccccc1)NC(=O)[C@@H](N)Cc1c[nH]c2ccccc12)C(=O)N[C@@H](CO)C(=O)N[C@@H](COCc1ccccc1)C(=O)N[C@@H](Cc1c[nH]c2ccccc12)C(=O)O) [SEQ ID NO: 101]
6,> 15 µM and ≤ 22.5 µM,H-WFLISTW-OH [SEQ ID NO: 103]
7,> 7.5 µM and ≤ 15 µM,H-WFLISYW-OH [SEQ ID NO: 109]
8,> 30 µM,H-KMWILICFWG-OH [SEQ ID NO: 113]
9,> 15 µM and ≤ 22.5 µM,H-RMWILICFWG-OH [SEQ ID NO: 115]
10,> 7.5 µM and ≤ 15 µM,H-RMWILISFWG-OH [SEQ ID NO: 124]
11,> 15 µM and ≤ 22.5 µM,"KMWFLICFWD (HELM PEPTIDE1{K.M.W.F.L.I.C.F.W.D}$PEPTIDE1,PEPTIDE1,1:R3-10:R3$$$V2.0; SMILES CC[C@H](C)[C@@H]1NC(=O)[C@H](CC(C)C)NC(=O)[C@H](Cc2ccccc2)NC(=O)[C@H](Cc2c[nH]c3ccccc23)NC(=O)[C@H](CCSC)NC(=O)[C@@H](N)CCCCNC(=O)C[C@@H](C(=O)O)NC(=O)[C@H](Cc2c[nH]c3ccccc23)NC(=O)[C@H](Cc2ccccc2)NC(=O)[C@H](CS)NC1=O) [SEQ ID NO: 170]"
12,≤ 7.5 µM,H-HMWILICFWG-OH [SEQ ID NO: 114]
13,> 7.5 µM and ≤ 15 µM,"KMWFLICAWD (HELM PEPTIDE1{K.M.W.F.L.I.C.A.W.D}$PEPTIDE1,PEPTIDE1,1:R3-10:R3$$$V2.0; SMILES CC[C@H](C)[C@@H]1NC(=O)[C@H](CC(C)C)NC(=O)[C@H](Cc2ccccc2)NC(=O)[C@H](Cc2c[nH]c3ccccc23)NC(=O)[C@H](CCSC)NC(=O)[C@@H](N)CCCCNC(=O)C[C@@H](C(=O)O)NC(=O)[C@H](Cc2c[nH]c3ccccc23)NC(=O)[C@H](C)NC(=O)[C@H](CS)NC1=O) [SEQ ID NO: 167]"
14,> 30 µM,MSRMWFLISFW-NH2 [SEQ ID NO: 72]
15,> 30 µM,KSRHWFLISFW-NH2 [SEQ ID NO: 94]
16,> 22.5 µM and ≤ 30 µM,H-MSRMWFLISSW-OH [SEQ ID NO: 99]
17,> 30 µM,DSRMWFLISFW-NH2 [SEQ ID NO: 85]
18,> 30 µM,HSRMWFLISFW-NH2 [SEQ ID NO: 89]
19,> 30 µM,"KSRMWYLISFW (HELM PEPTIDE1{K.S.R.M.W.Y.L.I.S.F.W}$PEPTIDE1,PEPTIDE1,1:R3-11:R2$$$V2.0; SMILES CC[C@H](C)[C@@H]1NC(=O)[C@H](CC(C)C)NC(=O)[C@H](Cc2ccc(O)cc2)NC(=O)[C@H](Cc2c[nH]c3ccccc23)NC(=O)[C@H](CCSC)NC(=O)[C@H](CCCNC(=N)N)NC(=O)[C@H](CO)NC(=O)[C@@H](N)CCCCNC(=O)[C@H](Cc2c[nH]c3ccccc23)NC(=O)[C@H](Cc2ccccc2)NC(=O)[C@H](CO)NC1=O) [SEQ ID NO: 32]"
20,> 30 µM,MSRHWFLISFW-NH2 [SEQ ID NO: 88]
21,> 7.5 µM and ≤ 15 µM,MSRMWFLISSW (HELM PEPTIDE1{M.S.R.M.W.F.L.I.S.[CCOC[C@H](N[*:1])C(=O)[*:2]].W}$$$$V2.0; SMILES CCOC[C@H](NC(=O)[C@H](CO)NC(=O)[C@@H](NC(=O)[C@H](CC(C)C)NC(=O)[C@H](Cc1ccccc1)NC(=O)[C@H](Cc1c[nH]c2ccccc12)NC(=O)[C@H](CCSC)NC(=O)[C@H](CCCNC(=N)N)NC(=O)[C@H](CO)NC(=O)[C@@H](N)CCSC)[C@@H](C)CC)C(=O)N[C@@H](Cc1c[nH]c2ccccc12)C(=O)O) [SEQ ID NO: 105]
22,> 30 µM,KSRWWFLISFW-NH2 [SEQ ID NO: 95]

row,Wnt Reporter EC50,Binder
1,> 30 µM,FSRMWFLISFW-NH2 [SEQ ID NO: 81]
2,> 30 µM,MSRMWWLISFW-NH2 [SEQ ID NO: 80]
3,> 30 µM,WSRMWFLISFW-NH2 [SEQ ID NO: 79]
4,> 30 µM,RSRMWFLISFW-NH2 [SEQ ID NO: 84]
5,> 30 µM,MSRFWFLISFW-NH2 [SEQ ID NO: 77]
6,> 30 µM,MSRTWFLISFW-NH2 [SEQ ID NO: 76]
7,> 30 µM,MQRMWFLISFW-NH2 [SEQ ID NO: 74]
8,> 30 µM,MSRRWFLISFW-NH2 [SEQ ID NO: 75]
9,> 30 µM,WSRKWFLISFW-NH2 [SEQ ID NO: 90]
10,> 30 µM,KSRMWFLISFW-NH2 [SEQ ID NO: 83]
11,> 30 µM,KSRKWFLISFW-NH2 [SEQ ID NO: 93]
12,> 30 µM,MSRWWFLISFW-NH2 [SEQ ID NO: 78]
13,> 30 µM,YSRMWFLISFW-NH2 [SEQ ID NO: 82]
14,> 30 µM,MTRMWFLISFW-NH2 [SEQ ID NO: 73]
15,> 30 µM,ESRMWFLISFW-NH2 [SEQ ID NO: 86]
16,> 15 µM and ≤ 22.5 µM,MSRMWFLISSW (HELM PEPTIDE1{M.S.R.M.W.F.L.I.S.[O=C([C@H](COCc1ccccc1)N[*:1])[*:2]].W}$$$$V2.0; SMILES CC[C@H](C)[C@H](NC(=O)[C@H](CC(C)C)NC(=O)[C@H](Cc1ccccc1)NC(=O)[C@H](Cc1c[nH]c2ccccc12)NC(=O)[C@H](CCSC)NC(=O)[C@H](CCCNC(=N)N)NC(=O)[C@H](CO)NC(=O)[C@@H](N)CCSC)C(=O)N[C@@H](CO)C(=O)N[C@@H](COCc1ccccc1)C(=O)N[C@@H](Cc1c[nH]c2ccccc12)C(=O)O) [SEQ ID NO: 106]
17,> 15 µM and ≤ 22.5 µM,WSRWWFLISFW-NH2 [SEQ ID NO: 92]
18,> 30 µM,WSRHWFLISFW-NH2 [SEQ ID NO: 91]
19,> 30 µM,MSRKWFLISFW-NH2 [SEQ ID NO: 87]
20,> 7.5 µM and ≤ 15 µM,H-WFLISFW-OH [SEQ ID NO: 110]
21,> 7.5 µM and ≤ 15 µM,MWFLISFW-NH2 [SEQ ID NO: 107]
